From patent publication US20230257726A1

Target: SARS-CoV-2 spike protein on spike pseudotyped lentivirus particles or authentic SARS-CoV-2 (SARS-CoV-2) (UniProt P0DTC2)
Experiment: cell-based or functional assay

Substance: Wild type ACE2(614)-Fc (Fc fusion)
- IC50 (µg/ml), pseudovirus: 0.43 µg/mL
